According to PMC10017518, “Structural basis for bacterial energy extraction from atmospheric hydrogen” (Nature, 2023):

Tests used:
[1] = biological target: Huc protomer (HucSL heterodimer) (Mycobacterium smegmatis mc2155); experiment: cryo-EM structure; single-particle reconstruction of the purified Huc oligomer (2.19 Å overall) and of the individual HucS2L2 lobe (1.52 Å and 1.67 Å)
Huc = biological target: T1, Huc (Mycolicibacterium smegmatis, UniProt A0QUM6+A0QUM7); experiment: H2 electrode and gas chromatography of H2 consumption; type: biochemical; conditions: H2 as donor, 50 mM Tris, 150 mM NaCl, pH 8.0
T1 construct: gene hybA; native host purification, chromosomal N-terminal 2×StrepII tag on HucS, tag kept; 833 kDa oligomer of four HucS2L2 lobes on a HucM tetramer; HucL ~58, HucS ~39, HucM ~18 kDa; with Group 2a [NiFe] hydrogenase large subunit HucL; Huc scaffold and stalk protein HucM
T1 sequence (A0QUM6 2-323): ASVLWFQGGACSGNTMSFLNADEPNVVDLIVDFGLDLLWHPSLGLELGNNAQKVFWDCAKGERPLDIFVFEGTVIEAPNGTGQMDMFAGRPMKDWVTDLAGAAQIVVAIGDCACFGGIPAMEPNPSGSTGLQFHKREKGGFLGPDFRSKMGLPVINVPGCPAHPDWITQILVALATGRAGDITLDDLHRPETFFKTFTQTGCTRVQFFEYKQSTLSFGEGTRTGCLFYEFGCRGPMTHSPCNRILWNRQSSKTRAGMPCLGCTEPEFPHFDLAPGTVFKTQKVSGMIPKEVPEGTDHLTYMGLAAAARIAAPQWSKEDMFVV
T1 sequence (A0QUM7 2-516): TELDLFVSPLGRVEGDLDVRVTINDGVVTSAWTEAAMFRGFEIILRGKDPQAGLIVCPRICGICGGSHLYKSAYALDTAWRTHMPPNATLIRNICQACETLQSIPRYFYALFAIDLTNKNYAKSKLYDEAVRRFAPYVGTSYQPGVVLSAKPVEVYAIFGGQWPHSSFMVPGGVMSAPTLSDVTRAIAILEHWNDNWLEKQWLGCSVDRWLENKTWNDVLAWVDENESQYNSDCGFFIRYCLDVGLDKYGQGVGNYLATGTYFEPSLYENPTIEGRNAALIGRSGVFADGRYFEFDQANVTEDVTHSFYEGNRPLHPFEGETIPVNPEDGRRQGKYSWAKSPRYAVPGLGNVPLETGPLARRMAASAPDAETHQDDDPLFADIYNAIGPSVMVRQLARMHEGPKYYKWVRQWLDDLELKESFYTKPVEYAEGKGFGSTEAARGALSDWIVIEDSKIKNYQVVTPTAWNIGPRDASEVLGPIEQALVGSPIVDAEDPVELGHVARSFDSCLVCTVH
T1 sequence (A0QUM5 1-189 partner): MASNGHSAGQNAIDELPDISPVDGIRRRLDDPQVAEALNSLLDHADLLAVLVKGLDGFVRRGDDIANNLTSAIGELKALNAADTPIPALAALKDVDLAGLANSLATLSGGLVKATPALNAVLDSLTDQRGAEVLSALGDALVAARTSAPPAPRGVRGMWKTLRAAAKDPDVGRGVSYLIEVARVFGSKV

[2] = biological target: the molecule itself; experiment: cryo-EM structure; single-particle reconstruction of the purified Huc oligomer (2.19 Å overall) and of the individual HucS2L2 lobe (1.52 Å and 1.67 Å)

Huc protomer (HucSL heterodimer) (complex)
stoichiometry N [1]: 2

COc1cc(-c2ccc(-n3nc(-c4ccccc4)n[n+]3-c3ccc([N+](=O)[O-])cc3)c(OC)c2)ccc1-n1nc(-c2ccccc2)n[n+]1-c1ccc([N+](=O)[O-])cc1 [nitro blue tetrazolium]
H2 electrode and gas chromatography of H2 consumption (Huc; 200 µM NBT as electron acceptor): using nitro blue tetrazolium (NBT) or the quinone analogue menadione as the electron acceptor

CC1=CC(=O)c2ccccc2C1=O [menadione]
H2 electrode and gas chromatography of H2 consumption (Huc; 200 µM menadione as electron acceptor): Huc displayed a much higher maximum velocity with menadione

B1: HucM (MSMEG_2261), scaffold subunit of the Mycobacterium smegmatis hydrogenase Huc (natural protein, Mycobacterium smegmatis mc2155, UniProt A0QUM5 1-189, looked up)
chain: T1 sequence (A0QUM5 1-189 partner)
notes: HucM, uncharacterized protein MSMEG_2261 encoded directly upstream of hucS in the huc operon, Mycobacterium smegmatis mc2155; approximately 18 kDa; 188 amino acids printed (residues 80 to 189 are also printed); only residues 20-79 modelled in the cryo-EM map; source: M. smegmatis mc2155 PRC1 HucS-2×StrII, endogenous; in cell lysate and co-purified with HucS (StrepTrap, Superose 6)
stoichiometry N [2]: 4
